The values that follow come from the nanobody polyreactivity screen of Harvey et al. (2022).

The data set in a line: yeast display, Sf9 membrane polyspecificity reagent, FACS + sequencing; frameworks hold sequencing errors. In a few lines: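 Nanobodies from a synthetic yeast display library (Saccharomyces cerevisiae BJ5465), induced 36–48 hours with galactose, were stained 1 hour at 4 °C with 10% biotinylated, detergent-solubilized Sf9 membrane reagent, enriched on streptavidin microbeads, then FACS-sorted. Anti-HA (expression) and streptavidin (reagent binding) fluorescence set low and high (top ~1%) gates. Polyreactivity labels come from the gate of origin. Genes were colony-PCR amplified, MiSeq 2 × 250 sequenced and filtered by CDR length.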
For “QVQLVESGGGLVQAGGSLRFSCAASGFTFYPNTMGWYRQAPGTERELVAAISSSGGRTYYADSVKGRFTISRDNAKNTVYLQMNSLKPEDNAVYYCNAAKWLTSGGLDYWGQGTQVTVSS”, the “polyreactivity (PSR sort gate)” value was “high polyreactivity”.

With “QVQLVESRGGLVQAGGSLRLISAASGSSFLSYAMGWYRQAPGKERELVAAITGSGGNTYYADSVKGRFTISRDNAKNTVYLQMNSLIPEDTAVYYCAARAPTWAGTYGYWGQGTQVTVSS”, the “polyreactivity (PSR sort gate)” value was “high polyreactivity”.

With “QVQLVESGGGLVQAGGSLRLSCAASGRIFHYYAMGWYRQAPGKERELVAAISWSGGSTYYADSVKGRFTISRDNAKNTVYLQMNSLKPEVTAVYYCNRQFGRRVYISHPGPGYWGQGTQVTVSS”, the “polyreactivity (PSR sort gate)” value was “high polyreactivity”.

Regarding “QDQLVESGGGVVQAGGSLRLSCAASGRIVGSKASGVSIEAPRKESEFVAAISSCSRTYYADSVKGLFSISRDNAKNTVYLQMNSLKPEDTAVYYCAKRGYFYSHRHGYEYGGQGTQVTVSS”, the “polyreactivity (PSR sort gate)” value is recorded as “high polyreactivity”.

“QVQLVESGGGLVQAGGSLRLSCAASGSRNAMGWYRQAPGKESEFVAAITWNGGSTYYADSVKGRFTISRDNAKNTVYLQMNSLKPEDTAVYYCNKREVFIYGTTYDYWRQGTQVTVSS”: the “polyreactivity (PSR sort gate)” value is recorded as “low polyreactivity”.

For “QVQLVESGGGLVQAGGSLRLSCAATGITFQPYTMGWYRQAPGKERELVASISIRGSRTYYADSVKGRFTISRDNAKNTVYLQMNSLKPEDTAVYYCNAPYNHVWAHSYWYDYWGQGTQVTVSS”, the “polyreactivity (PSR sort gate)” value is recorded as “high polyreactivity”.

With “QVHLVESGGGLVQAGGSLRLSCAASGSIFPRNAMGWYRQAPGKERELVAAISSGGGRTYYADSVKGRFTISRDNAKNTVYLQMNSLKPVDTAVYYCAREVWGYRWLYPVYILDYWGQGTQVTVSS”, the “polyreactivity (PSR sort gate)” value is recorded as “high polyreactivity”.

Regarding “QVQLVESGGGLVQAGGSLRLSCAASGRIFTRYAIGWYRQAPGKERELVAAITYNGGSTYYADSVKGRFTISRDNAKNTVYLQMNSLKPEDTAVYDCNAVYLSWFGLFAGFDYWGQGTQVTVSS”, the “polyreactivity (PSR sort gate)” value is “high polyreactivity”.

As to “QVQVVESGGGLVQAGGSLRLSCAASGGIFYGYAMGWYRQAPGKERELVAAITSNGGTTYYADSVKGRFTISRDNAKNTVYLQMNSLKPEDTAVYYCDAYFKDSGSYYYWGQGTQVNVSS”, the “polyreactivity (PSR sort gate)” value is on record as “low polyreactivity”.

As for “QVQLVESGGGLVQAGGSLRLRCAASGITLVDYAMGWNRQAPGKERELVAAITTGGSTNYADSVKGRFTISRDNAKNTVYLQINSLKPEDTAVYYCNKRAVILYDYWGQGTQVTVSS”, the “polyreactivity (PSR sort gate)” value is “low polyreactivity”.

Consider “QVQLVESGGGLVQAGGSLRLSCAASGRIFLVYAMGWYRQAPGKERELVAAISWRGGRTYYADSVKGRFTISRDNAKNTVYLQMNSLKPEDTAVYYCAAASKYSQFEYDYWGQGTQVTVSS”, for which the “polyreactivity (PSR sort gate)” value is “high polyreactivity”.

As for “QVQLVESCGGLVQAGGSLRLSCAASGGTFGFYAMGWYRQAPGKERELVAAISRRGGSTYYADSVKGRFTISRDNAKNTVYLQMNSLKPEDTAVYYCAARVYRYRHYDYWGQGTQVTVSS”, the “polyreactivity (PSR sort gate)” value is reported as “high polyreactivity”.

For “QVQLVESGGGLVQAGGSLRLSCAASGRIFGYYAMGWYRQAPGKESELVARISSSGGSTYYADSVKGRFTISRDNAKNTVYLQMNSLKPEDTAVYYCNTASNRSPGWRAEFDYWGQGTQVTVSS”, the “polyreactivity (PSR sort gate)” value was “low polyreactivity”.

As to “QVQLVESGGGLVQAGGSLRLSCAASGFTFVYYAKGWYRQAPGKERELVATISGNGGRTYYADSVKGRFTISRDNAKNTVYLQMNSLKPEDTAVYYCAALLYIRSVGYDYWGQGTQVTVSS”, the “polyreactivity (PSR sort gate)” value was “low polyreactivity”.

As for “QVQLVESGGGLVQAGGSLRLSCAASGRIFNAYAMGGYRQAPGKERELVAAISGGGRTYYADSVKGRFTISRDNAKNTVYLQMNSLKPEDTAVYYCAADSPTQSTLGKYDYWGQGTQVTVSS”, the “polyreactivity (PSR sort gate)” value is “high polyreactivity”.

For the sequence “QVQLVESRGGLDQAGGSLRLSCAASGSIFNAYVMGWYRQAPGKERELVAAISRSGGRTYYADSVKGRFTISRDNAKNTVYLQMNSLKPEDTAVYYCAASTIWHYDSWGQGTQVTVSS”, the “polyreactivity (PSR sort gate)” value is “high polyreactivity”.

As to “QVQLVESWGGLVQAGGSLRLSCADSGRIFRGYGMGWYIQAPGKERELVAVISYSGTPTYYADSVKGRFTISRDNAKNTVYLQMNSLKAEDTAVYYCAARLYWIPPSPSRYDYWLQGTQVTVSS”, the “polyreactivity (PSR sort gate)” value is listed as “high polyreactivity”.

In the case of “QVQLVESGGGLVQARVSLRLICAASAIIIYDNAIGWYRQAPGKESEFVATINYSGDSTYYADSVKGRFTISRDNANNTVYLQMNSLKPEDTAVYYCATDGAWQYYWVYSHVYWGQGTQVTVSS”, the “polyreactivity (PSR sort gate)” value is “low polyreactivity”.

Take “QVQLVESGGGLVQAGGSLRLSCAASGFTFISNAMGWYRQAPGKERELVAAISSSGGRTYYADSVKGRFTISRDNAKNTVYLQMNRLKPEDTAVYYCYADRSLLYSRKIEYDYWGQGTQVTVSS”: the “polyreactivity (PSR sort gate)” value is “low polyreactivity”.

For the sequence “QVQLVESGGGLVQAGGSLRLSCAASGRIFAWYAMGWYRQAPGKERELVAAISDSGGSTYYADSVKGRFTISRDNAKNTVYLQMNSLKPEDTAVYYCAADQVVYSAYWSDHYDYWGQGTQVTVSS”, the “polyreactivity (PSR sort gate)” value is “low polyreactivity”.

For the sequence “QVQLVESGGGLVQAGGSLRLSCAASGRTFPRNGMGWYRPAPGQERELVAAIRYSGGSTYYADSVKGRFTISRDNAKNTVYLQMNSLKPEDTAVYYCAAEYRRALGVDYWGQGTQVTVSS”, the “polyreactivity (PSR sort gate)” value is reported as “high polyreactivity”.

For the sequence “QVQLVESGGGLVQAGGSLRLSCAASGRTLYYYTMGWYRQAPGKERELVAAIRWSTGSTYYADSVKGRFTISRDNAKNTVYLQMNSLKPEDTAVYYCNAVVARLIFWQFDYWGQGTQVTVSS”, the “polyreactivity (PSR sort gate)” value is recorded as “high polyreactivity”.

“QVQLVESGGGLVQAGGSLRLSCAASGRIFQYNAMGWYRQAPGKESELVAAIRRGGGSTYYADSVKGRFTISRDNAKNTVYLQMNSLKPEDTAVYYCAARRKRVSFYPEYDYWGQGTQVTVSS”: the “polyreactivity (PSR sort gate)” value is listed as “low polyreactivity”.

On to “QVQLEDSGGGLVQAGGSLRLSCAASGRTFVFKAMGWYRPAPGKERELVAAITISGGSTYYADSVKGRFTISRDNAKNTVYLQMNSLKPEDTAVYSCNADSKIEVFSYIYDYWGQGTQVTVSS”, for which the “polyreactivity (PSR sort gate)” value was “high polyreactivity”.

Consider “QVQLVESGGGLVQAGGSLRLSCAASGFIFGGYARGWYRQAPGKEREFVAAIRQRGGSTYYADSVKGRFTISRDNAKNTVYLQMNSLKPEDTAVYYCAAEPNTQWFDYWGQGTQVTVSS”, for which the “polyreactivity (PSR sort gate)” value was “high polyreactivity”.

In the case of “QVQLVESGGGLVQAGGSLRLSCAASGFTFHQYTMGWYRQAPGKERELVAAISRSGYTNYADSVKGRFTISRDNAKNTVYLQMNSLKPEDTAVYYCNARSTRSRTYQSYDYWGQGTQVTVSS”, the “polyreactivity (PSR sort gate)” value is “high polyreactivity”.

Turning to “QVQLVESGGGLVQAGGSLRLSCAASGSIFIQYAMGWYRQAPGKERELVAAITSGGGSTYYADSVKGRFTISRDNAKNTVYLQMNSLKPEDTAVYYCAVDRTRRPAVPYVTLDRGYCGQGTQVTVSS”, the “polyreactivity (PSR sort gate)” value is listed as “low polyreactivity”.

For “QVQLVESGGGLVQAGGSLRLSCAASGFTFYAYAMGWYRQAPGKERELVAAISTSGTDTYYADSVKGRFTISRDNAKNTVYLQMNSLKPEDTAVYYCAAELYLYGFYEPIYPYSYDYWGHGTQVTVSS”, the “polyreactivity (PSR sort gate)” value is recorded as “low polyreactivity”.

In the case of “QVQLVESGGGLVQAGGSLRLTCAASGSIFWRNTMGWYRQAPGKERELVAAIRNVGSTYYADSVKGRFTISRDNAKNTVYLQMNSLKPEDTAVYYCAVVYPARGSGNDSWGQGSQVTVSS”, the “polyreactivity (PSR sort gate)” value is recorded as “high polyreactivity”.

In the case of “QVQLVESGGGLVQAGGSLRLSCAASGLNIRYYAMGWYRQAPGKERELVAAISYNGGSTYYADSVKGRFTISRDNAKNTVYLQMNSLKPEDTAVYYCAARLYGRYGYWGQGTQVTVSS”, the “polyreactivity (PSR sort gate)” value is on record as “high polyreactivity”.

For the sequence “QVQLVESGGGLVQAGGSLRLSCAASGSTFRYYAMGWYRQAPGKEREFVAAITASGVTTYYADSVKGRFTISRDNAKNTVYLQMNSLKPEDTAVYYCAARLYYNYRGRYNYWGQGTQVTVSS”, the “polyreactivity (PSR sort gate)” value is recorded as “high polyreactivity”.

As to “QVQLVESGGGLVQAGGSLRLSCAASGFTFYFYAKGWYTQSPGKERELVASISSSGGSTYADSVKGPFTISRDNAKNTVYLQMNSLKPEDTAVYYCAATEIFRFRYVAVGYDYWGQGTQVTVSS”, the “polyreactivity (PSR sort gate)” value is listed as “low polyreactivity”.

For “QVQLVESVGGLVQAGGSLLLSCAASGFTFGPYAMGWYRQAPGKERELVAAISRSGGSTYYSDSVKGRFTISRYNAKNTVYLQLNSLKPEDTAVYYCAACSAYLWGQGTQVTVSS”, the “polyreactivity (PSR sort gate)” value is given as “low polyreactivity”.

With “QVQLVESGGGLVQAGGSLRLSCAASGSTFYNNAMGWYRQAPGKERELVAAITRTGGRTYYADSVKGRFTISRDNAKNTVYLQMNSLKPEDTAVYYCAALRYGQGSISAFDYWGQGTQVTVSS”, the “polyreactivity (PSR sort gate)” value was “high polyreactivity”.

For the sequence “QVQLVESRGGLVQAGGSLRLSCAASGITFGRNTMGWYRQAPGKERELVAAIDSGGNTYAESVKGRFTISRDNAKKTVYFQMNSLKPEDTAVYYCAVDGGEFSSYGYWGQGSQVTVSS”, the “polyreactivity (PSR sort gate)” value was “low polyreactivity”.

For “QVQLVESGGGLVQAGGSLRLSCAASGRIFANNAMGWYRQAPGKERELVAAINWSGSRTYYADSVKGRFTISRDNAKNTVYLQMNSLNPEDTAVYYCAAVGRWGVTGSHHDAYDYWGQGTQVTVSS”, the “polyreactivity (PSR sort gate)” value is on record as “high polyreactivity”.

For the sequence “QVQLVESGGGLVQAGGSLRLSCAASGSTSYYYTMGWYRQAPGKERELVASISSSGTSTYYADSVKGRFTISRDNPKNTVYLQMNSLKPEDTAVYYCAATADNNTPSGYDYWGQGTQVTVSS”, the “polyreactivity (PSR sort gate)” value is listed as “high polyreactivity”.

Turning to “QEQLVESVGGLVQARGSLRLSGAASGYTFKYNALGWYRPAPGKERELVAAITSGGSTNYADSVKGRFTISRDNAKNTVYLQMNSLKPEDTAVYYCAAAQPRTNAYRVGSWGQGTQVTVSS”, the “polyreactivity (PSR sort gate)” value is listed as “high polyreactivity”.

With “QVQLVESGGGLVQAGGSLRLSCAASGRTISYYAMVWYRPAPGKERELVAAISSSGGSTYYADSVKGRFTISRDNAKNTFYLQMNSLKPEDTAVYYCAAYQRGNRYDYWGQGTQVTVSS”, the “polyreactivity (PSR sort gate)” value is “high polyreactivity”.

Take “QVQLVESGRGLVQAGASLRLSCAASGSTFYVNAMGWYRQAPGKERELVAAITSTGTTHYADSVKGRFTISRDNAKNTVYLQMNSLKPEDTAVYYCAAYSRYQSRRYYYWGQGTQVTVSS”: the “polyreactivity (PSR sort gate)” value is reported as “high polyreactivity”.

As for “QVQLVESGGGLVQAGGSLRLSCASSGRTFPGNAMGWYRPAPGKERELVAAISWSGTRTYYADSVKGRFTISRDNAKNTVSLKMNSLKPEDTAVYSCNVVVKGAWDYYPYDYWGQGTQVTVSS”, the “polyreactivity (PSR sort gate)” value is “high polyreactivity”.
